Data published in PMC10514136, “Peptide-conjugated antimiRs improve myotonic dystrophy type 1 phenotypes by promoting endogenous MBNL1 expression” (Molecular Therapy. Nucleic Acids, 2023).
“And” between values parts separate entries of the source, which are not always exact repeats. Identical values can stand only once. Like-named read-outs stand apart in the source and are kept apart here.

Key:
[1] = tested on: MBNL1 protein levels in DM1 cells; assay type: cell-based, human; settings: for Tindex (therapeutic index): Tindex = TC50 x Emax / EC50; for EC50: median effective concentration for MBNL1 increase, DM1 myotubes, lipofection (X-tremeGENE HP), medium replaced after 4 h, cells collected day 4, each concentration in triplicate; for MBNL1 fold change: vs untreated DM1 cells
Description: Immortalized MyoD-inducible (doxycycline) DM1 and control fibroblasts were kindly provided by Dr Furling (Institute of Myology, Paris, France).[38] For the activity assay, cells were seeded in 6-well plates at a density of 8 × 10^4 cells/well and grown in DMEM with 4.5 g/L glucose, 1% P/S, and 10% FBS (Sigma, St. Louis, MO). […] In all cases, the cells were grown at 37°C in a humidified atmosphere containing 5% CO2. Transdifferentiation was induced at day 0, and transfection was performed by lipofection with X-tremeGENE HP (Roche, Basel, Switzerland) 24 h later, with antimiRs and test compounds in the cell medium at different concentrations (from 0.4 nM to 5 μM). The medium was replaced with fresh differentiation medium 4 h afterward. In the gymnosis assay, test compounds were added to the culture medium only at the corresponding EC50 concentration. Cells were collected on day 4 of differentiation and were processed for protein extraction.
For total protein extraction, human muscle cells were sonicated while mouse muscles (gastrocnemius and quadriceps) were homogenized in Pierce RIPA buffer (Thermo Scientific, Waltham, MA) supplemented with protease and phosphatase inhibitor cocktails (Roche Applied Science, Penzberg, Germany). Quantification of total protein was performed with a Pierce BCA protein assay kit (Thermo Scientific) using bovine serum albumin as standard.
A 96-well plate QDB assay was used[87] to determine MBNL1 protein levels in all replicates and concentrations of each ON tested. This technique allows for high-throughput screening of low protein concentration samples over conventional western blot (WB) (Figure S9).[88] Cell samples (1 μg/well) and mice samples (2 μg/well) were prepared with 4× loading buffer, denatured (100°C for 5 min) and loaded in QDB plates (Quanticision Diagnostics, Research Triangle Park, NC). For the quantification of in vitro samples, the QDB was performed exactly as described in Moreno et al.[87] […] For Mbnl1 quantification in mouse muscle tissues, we implemented the following modifications: each sample was loaded in quadruplicate on three different plates. One was used to detect Mbnl1 with a mouse MB1a(4A8) antibody (DSHB, Iowa City, IA) using a 1:200 dilution. A second plate was used to quantify tubulin (endogenous normalization control) with a mouse 12G10 antibody (DSHB) using a 1:1,000 dilution. A third plate was used to quantify IgG signal (negative control to subtract background) using an anti-mouse-IgG secondary antibody (Sigma-Aldrich) at 1:3,500 dilution. […] All primary antibodies were detected using horseradish peroxidase-conjugated anti-mouse-IgG secondary antibody (1:5,000 for the anti-mouse plate, 1:2,000 for cell plates, and 1:3,500 for mouse plates [Sigma-Aldrich, MO]). Immunoreactive bands were detected using Pierce ECL Western reagent (Thermo Scientific), and luminescence levels were determined using an Infinite M200 PRO plate reader (Tecan). […] WB assay was performed as described previously.[20]
After obtaining the TC50, EC50, and Emax in vitro, we defined a Tindex as follows: Tindex=TC50×Emax/EC50

Nfix exon 7 = test: Alternative splicing of Nfix exon 7 in muscle by RT-PCR (PSI, splice recovery); assay type: in vivo, mouse; settings: HSALR mice, individual mice; for Percentage spliced-in (PSI) Nfix Gast: 9.2 mg/kg (mean) i.v. x3, day 45, gastrocnemius; for Percentage spliced-in (PSI) Nfix Quads: 9.2 mg/kg (mean) i.v. x3, day 45, quadriceps
Description: (§1) Total RNA from murine gastrocnemius and quadriceps muscle was isolated using the miRNeasy Mini Kit (QIAGEN, Hilden, Germany) according to the manufacturer’s instructions. One microgram of RNA was digested with DNase I (Invitrogen, Carlsbad, CA) and reverse transcribed with SuperScript II (Invitrogen) using random hexanucleotides. For subsequent PCR reactions, 20 ng of cDNA was used with GoTaq polymerase (Promega). Specific primers were used to analyze the alternative splicing of Nfix, Atp2a1, and Clcn1 in mouse samples (both muscles). Gapdh levels established the endogenous reference levels using 0.2 ng of cDNA. PCR products were separated on a 2% agarose gel and quantified using ImageJ software (NIH, Bethesda, MD). PSR index was defined as value%SI minus X¯%DSI , divided by X¯%DSI minus X¯%HSI (SI, splicing inclusion of each sample; DSI, disease splicing inclusion; HSI, healthy splicing inclusion). Overall, PSR indicates the amount in both muscles analyzed. Primer sequences and exons analyzed are available in Cerro-Herreros et al.[20] In the case of off-targets, interleukins, and muscle regeneration marker Mstn-1, primers sequences are available in Table S5. We used 1 ng of mouse tissue cDNA as a template for multiplex qPCR using the QuantiFast Probe PCR Kit reagent. Commercial TaqMan probes (QIAGEN) were used for mouse (Mbnl1 and Mbnl2; FAM-labeled probes) and reference (GAPDH; MAX-labeled probe) genes. Results were normalized to Gapdh endogenous gene expression.
(§2) We used homozygous transgenic HSA^LR (line 20 b) mice,[90] which were kindly provided by Dr Thornton (Rochester, NY) and were housed and bred in our animal facility. Experimental groups were FVB as healthy control and HSA^LR treated with a scrambled ON (SC) and PBS as negative controls, and HSA^LR mice treated with all six experimental CPP-PMOs. The mice were randomly allocated to the different treatments as follows: in each cage, each mouse was ear-marked as it was taken out, and each mouse was then assigned to a different treatment. […] Mice were sacrificed 45 days after the first injection and the tissues of interest were frozen in liquid nitrogen for the molecular and histological assays. All the mice used in this study ranged from 5 to 5.5 months of age and all were males.

Clcn1 exon 7a = test: Alternative splicing of Clcn1 exon 7a in muscle by RT-PCR (PSI, splice recovery); assay type: in vivo, mouse; settings: HSALR mice, individual mice; for Percentage spliced-in (PSI) Clcn1 Gast: 9.2 mg/kg (mean) i.v. x3, day 45, gastrocnemius; for Percentage spliced-in (PSI) Clcn1 Quads: 9.2 mg/kg (mean) i.v. x3, day 45, quadriceps
Description: as §1, §2

HSALR mice = test: Serum biochemistry profile; assay type: in vivo, mouse; settings: mouse, in vivo, iv, 9.2 mg/kg
Text: Mouse handling and experimental procedures followed the European law regarding laboratory animal care and experimentation (2003/65/C.E.) and were approved by Conselleria de Agricultura, […] (reference no. A1539961490857). We used homozygous transgenic HSA^LR (line 20 b) mice,[90] which were kindly provided by Dr Thornton (Rochester, NY) and were housed and bred in our animal facility. […] The mice were randomly allocated to the different treatments as follows: in each cage, each mouse was ear-marked as it was taken out, and each mouse was then assigned to a different treatment. Animals were injected biweekly intravenously with 150 μL of 1× PBS vehicle (controls; […] Mice were sacrificed 45 days after the first injection and the tissues of interest were frozen in liquid nitrogen for the molecular and histological assays. All the mice used in this study ranged from 5 to 5.5 months of age and all were males. At 45 days post treatment, animals were sacrificed, and blood was collected by cardiac puncture exsanguination with K3-EDTA (Sarstedt, Nümbrecht, Germany). The samples were analyzed by Laboratorios Montoro Botella (Valencia, Spain).

Row | Substance | Tindex (therapeutic index) [1] | EC50 [1] [nM] | MBNL1 fold change ([1]; transfection, 1,000 nM) [fold] | Percentage spliced-in (PSI) Nfix Gast (Nfix exon 7) | Percentage spliced-in (PSI) Nfix Quads (Nfix exon 7) | Percentage spliced-in (PSI) Clcn1 Gast (Clcn1 exon 7a) | Percentage spliced-in (PSI) Clcn1 Quads (Clcn1 exon 7a) | ALT (HSALR mice) | AST (HSALR mice) | Alkaline Phosphatase (HSALR mice) | Amylase (HSALR mice) | Bile Acids (HSALR mice) | Bilirubin (HSALR mice) | C.P.K. (HSALR mice) | Creatinine (HSALR mice) | Glucose (HSALR mice) | L.D.H. (HSALR mice) | Total cholesterol (HSALR mice) | Lipase (HSALR mice) | Urea (HSALR mice) | other results
1 | 6aKC-23b (antisense GGUAAUCCCUGGCAAUGUGAU; all phosphorodiamidate morpholino (PMO), T or U not given here; Pip6aKC peptide conjugated) | 7.78 | 453 | ~2 | 63.59% and 47.55% and 61.79% and 62.43% and 69.22% | 56.32% and 62.29% and 64.55% and 58.42% and 53.11% | 15.22% and 18.35% and 23.17% and 29.03% and 31.54% | 24.44% and 30.63% and 35.11% and 37.69% and 28.33% | 57,8 ± 13,349 U/L | 143,60 ± 41,464 U/L | 58,40 ± 6,693 U/L | 4232,6 ± 2590,822 U/L | 0,675 ± 0,754 µmol/L | 0,11 ± 0,083 mg/dL | 831,8 ± 357,821 U/L | 0,20 ± 0 mg/dL | 121,2 ± 27,607 mg/dL | 2574 ± 453,119 U/L | 227,40 ± 11,014 mg/dL | – | – | Triglycerides (HSALR mice): 235,4 ± 40,209 mg/dL
2 | 6aKC-218 (antisense ACAUGGUUAGAUCAAGCACAA; all phosphorodiamidate morpholino (PMO), T or U not given here; Pip6aKC peptide conjugated) | 22.78 | 138 | ~1.5 | 68.36% and 70.85% and 73.58% and 51.68% and 74.79% | 52.44% and 62.29% and 52.77% and 89.96% and 66.72% | 28.37% and 38.26% and 18.26% and 24.01% and 28.56% | 33.68% and 24.84% and 25.74% and 41.25% and 27.67% | 60,20 ± 16,208 U/L | 138,4 ± 57,665 U/L | 58 ± 4,123 U/L | 2999,4 ± 120,286 U/L | 2,38 ± 3,406 µmol/L | 0,096 ± 0,03 mg/dL | 818 ± 604,389 U/L | 0,20 ± 0 mg/dL | 107,2 ± 31,292 mg/dL | 2137,60 ± 340,071 U/L | 232 ± 12,124 mg/dL | – | – | Triglycerides (HSALR mice): 273,4 ± 51,335 mg/dL
3 | 9b2-23b (antisense GGUAAUCCCUGGCAAUGUGAU; all phosphorodiamidate morpholino (PMO), T or U not given here; Pip9b2 peptide conjugated) | 25.19 | 16 | – | 55.08% and 63.11% and 66.38% and 63.52% and 47.66% | 15.30% and 54.78% and 4.40% and 48.44% and 23.44% | 26.85% and 32.69% and 33.28% and 26.86% and 11.37% | 0.61% | 47 ± 6,708 U/L | – | 61 ± 4,301 U/L | 2754,4 ± 540,954 U/L | 9 ± 11,747 µmol/L | 0,102 ± 0,029 mg/dL | – | 0,26 ± 0,054 mg/dL | – | – | – | 36,60 ± 8,264 U/L | 53 ± 2,345 mg/dL | ΔTindex ([1]; fold change in Tindex relative to the control antagomiR against the same miRNA): 0.34 fold change; urea values vs HSALR group treated with PBS (HSALR mice): statistically significant increase in the urea values
4 | 9b2-218 (antisense ACAUGGUUAGAUCAAGCACAA; all phosphorodiamidate morpholino (PMO), T or U not given here; Pip9b2 peptide conjugated) | 2.52 | 64.7 | – | 58.31% and 29.97% and 59.09% and 66.06% and 69.09% | 30.95% and 10.51% and 43.26% and 15.39% and 35.59% | 5.28% and 30.49% and 30.67% and 18.06% and 25.23% | 4.09% | 49 ± 19,079 U/L | – | 61,40 ± 6,730 U/L | 2773,2 ± 363,954 U/L | 74,80 ± 159,433 µmol/L | 0,108 ± 0,044 mg/dL | – | 0,32 ± 0,192 mg/dL | – | – | – | 63,8 ± 75,793 U/L | 44,40 ± 6,985 mg/dL | –
5 | 9b2KC-23b (antisense GGUAAUCCCUGGCAAUGUGAU; all phosphorodiamidate morpholino (PMO), T or U not given here; Pip9b2KC peptide conjugated) | 404.48 | 2 | – | 45.55% and 53.38% and 57.04% and 62.73% and 57.17% | 54.10% and 56.90% and 66.58% and 51.62% and 56.46% | 18.78% and 26.33% and 30.11% and 15.58% and 38.58% | 29.66% and 22.47% and 19.41% and 27.99% and 26.94% | 45,20 ± 1,303 U/L | – | 58,8 ± 5,718 U/L | 2952,6 ± 123,373 U/L | 8,40 ± 8,264 µmol/L | 0,10 ± 0,045 mg/dL | – | 0.20 ± 0,071 mg/dL | – | – | – | 30,6 ± 6,730 U/L | 43,6 ± 6,580 mg/dL | TC50 relative to EC50 [1]: 128 fold; MBNL1 fold change ([1]; transfection, 200 nM): ~3 fold
